This is an account of results in PMC6620605 (Current biology : CB, 2019).

In the assay the target is T1, 6x His-SEPT9 (human septin 9, isoform 1 / isoform a) (human, UniProt Q9UHD8-1 1-586).
T1 sequence (looked up): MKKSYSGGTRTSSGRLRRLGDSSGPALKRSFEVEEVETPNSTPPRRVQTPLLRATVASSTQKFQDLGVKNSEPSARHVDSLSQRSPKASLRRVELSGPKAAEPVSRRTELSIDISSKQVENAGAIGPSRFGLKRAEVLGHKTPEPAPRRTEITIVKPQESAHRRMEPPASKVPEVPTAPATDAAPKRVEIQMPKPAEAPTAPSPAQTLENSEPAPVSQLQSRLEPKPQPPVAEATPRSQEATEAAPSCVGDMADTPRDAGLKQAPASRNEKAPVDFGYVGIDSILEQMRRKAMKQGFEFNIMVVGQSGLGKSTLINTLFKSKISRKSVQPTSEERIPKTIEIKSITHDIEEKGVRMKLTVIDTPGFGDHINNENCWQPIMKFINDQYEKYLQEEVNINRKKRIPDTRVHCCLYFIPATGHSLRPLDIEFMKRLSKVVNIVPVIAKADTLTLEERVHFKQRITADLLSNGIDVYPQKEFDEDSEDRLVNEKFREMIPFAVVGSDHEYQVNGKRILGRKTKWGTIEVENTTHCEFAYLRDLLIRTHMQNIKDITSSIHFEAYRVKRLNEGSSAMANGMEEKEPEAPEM
In words: pull-down.

B1: GST-TSG101 UEV (TSG101 aa 1-145) (domain or fragment, human, UniProt Q99816-1 1-145, looked up)
chain: MAVSESQLKKMVSKYKYRDLTVRETVNVITLYKDLKPVLDSYVFNDGSSRELMNLTGTIPVPYRGNTYNIPICLWLLDTYPYNPPICFVKPTSSMTIKTGKHVDANGKIYLPYLHEWKHPQSDLLGLIQVMIVVFGDEPPVFSRP
Consider B1, for which the binding result is recorded as “binds”.
